Measurements taken from the supplement of paper PMC9170038.

Assays:
MS2 coat protein [1] = assay: apparent KD of MS2 coat protein, switch ON state; designed switch direction (-1 OFF switch, 1 ON switch): -1; higher = weaker reporter binding; settings: FMN input: 0 or 200 uM; Eterna round: R93 (includes R88 designs)
Method in brief: (§1)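 Designed RNA switches were made by on-chip transcription from Illumina sequencing clusters and then titrated with SNAP-549-labelled MS2 coat protein. Twofold steps ran from 0.7 or 1.5 nM to 3 µM, each lasting 0.8–1.5 h early and 10–20 min late, in 100 mM Tris-HCl pH 7.5, 80 mM KCl, 4 mM MgCl2, without or with constant ligand. Apparent KD is the per-design median of normalised cluster binding-curve fits.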

MS2 coat protein [2] = assay: apparent KD of MS2 coat protein, switch OFF state (with FMN for OFF switches, without FMN for ON switches); designed switch direction (-1 OFF switch, 1 ON switch): -1; higher = weaker reporter binding; settings: FMN input: 0 or 200 uM; Eterna round: R93 (includes R88 designs)
Method in brief: as §1

Sequence | apparent KD of MS2 coat protein (MS2 coat protein [1]) [nM] | apparent KD of MS2 coat protein (MS2 coat protein [2]) [nM]
AAAAAGUGAGGAUAUACAUGAGGAUCACCCAUGUGUAUAAAAAAAUACACAAAAGAAAGUAGAAGGCACUAAAA [Ex 3 Hot] | 21.1 | 58.6
GUGAAGGAAGGAUAUACAAAGGGACGUUAUAAGAGAAGAAGACAUGAGGAUCACCCAUGUAGAAGGUCCAGAUC [Beorteesri] | 25.9 | 43.5
AUGUAGGUAGGAUAUGCAUAGAUACAGAUUCAUGUGGAACUACAUGAGGAUCACCCAUGUAGAAGGACCUAAAA [Mat - Same state - Mayanna Mod - D126] | 20.2 | 30
AAAAGGUGAGGAUAUUCGAAAAUAAAAGAAAAUAAAAGAAAGAAGAAGGCACAUGAGGAUCACCCAUGUAAUAA [LROPPY Exclusion 4 - v02_deltaG=2.94 break up the As mixed] | 30.1 | 27
CACGUACAUGAGGAUCACCCAUGUUAGGAUAUGCCGGGUAAGAGAAAACUAAAAAUCCGCAGAAGGGACGAAAC [Bilbo Confounded 15 - Jieux - Exclusion 1] | 32 | 33.8
GAAGAACAUGAGGAUCACCCAUGUCAGGAUAUACAGAAGGGAAUAAUAUAACCUGGAAGUAGAAGGGACAAGAA [Ex 1 May 44] | 30.2 | 65.4
AUAGGCCUAGGAUAUACAUGAGGAUCACCCAUGUUAACACUUCAAUCAAGUUAAUAGUGUAGAAGGAGGAAUAA [JR_Exc003_Sub308] | 29.3 | 31.5
AUAAAGUCAGGAUAUGUAAAAAUAACGAAAGUUAUAAAUAAACAGAAGGGACAUGAGGAUCACCCAUGUGGAAU [Meechl MS2 EX4 62% 3] | 54.2 | 75
AAAAAGGCAGGAUAUGCAUACACACGAAAAAAAACGCUGGGACAUGAGGAUCACCCAUGUAGAAGGGCCAAAAA [Dora Explored 10 - Jieux - Exclusion 2] | 57.2 | 38.6
AAGAAGAGAGGAUAUACAUGAGGAUCACCCAUGUAAAAGAAAGAAAGGGAAAAGAAAAGUAGAAGGCUCAAGAA [Neferkare-setpenre Ramesses IX] | 34.6 | 45.7
AAGAACUGAGGAUAUACAUGAGGAUCACCCAUGUAAAAGAAAGAGGGAAAAGAGAAAAGUAGAAGGCAGAAGAA [Berenice II] | 24.9 | 32.4
AAGAACUAAGGAUAUACAAAAUAAAAGAAAAGAAAGAAAGAACAUGAGGAUCACCCAUGUAGAAGGUAGAAGAA [Khakheperre Senusret II] | 19.9 | 15.1
AACAUGUGAGGAUAUAAAAUGAAUAUAAAUUAUUAUCUUGAUUAGAAGGCACAUGAGGAUCACCCAUGUCUGAA [E4-1.2] | 23.8 | 25.2
AAAAAACAUGAGGAUCACCCAUGUAAGGAUAUGCAAAACCCAUAUAAAAAGGGAAAAAGCAGAAGGUGCAAAAA [wbt round 1 mod 5] | 23.7 | 33.2
AAGAAACAUGAGGAUCACCCAUGUGAGGAUAUUGAAGAAAGAAAGAAAGAAAGAAGAACAAGAAGGCACAAAGG [Quintus Magnus Maximus] | 26.9 | 35
AGAAAGUCAGGAUAUACGAAUAAGAAAAAAGACGAGAACGGACAUGAGGAUCACCCAUGUAGAAGGGACAAGAA [Diamond 15] | 91.2 | 40.6
AAAUAGCAAGGAUAUACAUGAGGAUCACCCAUGUGACCCAGGUAUGGCAUAGAAUAGAGUAGAAGGUGCAAAUA [Mod 4 of Ex 3 Tesla 8 - Jieux - Exclusion 3] | 132 | 149

Sequence | apparent KD of MS2 coat protein (MS2 coat protein [1]) [nM] | apparent KD of MS2 coat protein (MS2 coat protein [2]) [nM]
AAGAACGUAGGAUAUACAUGAGGAUCACCCAUGUAAAAGAAAGAGGGAAAAGAGAAAAGUAGAAGGACGAAGAA [Cleopatra II] | 26.1 | 38.2
AAGAAGCAAGGAUAUACAUGAGGAUCACCCAUGUAAAAGAAAGAGAAGGGAAAGAAAAGUAGAAGGUGCGAAAA [Ruby 71] | 20.2 | 23.7
GCUGUGCUAGGAUAUACAUGAGGAUCACCCAUGUGAGAGAAAAAAGUGAGAAAGAAAAGUAGAAGGAGCGUAGG [salish99-ex3-100] | 29.1 | 59.2
GUGUACAGAGGAUAUACAUAAGCAUGGAAACAUGCAACUUCACAUGAGGAUCACCCAUGUAGAAGGCUGUACAC [Ex2: 729] | 12.1 | 13.7
UAGAUACAUGAGGAUCACCCAUGUGAGGAUAUCGUUUGUACUAAUCUUUUAGUAUUUUCGAGAAGGCACAUAUA [Ex1Try2_Neo] | 48.5 | 143
ACAGUUACAGGAUAUACAUGGGAAAAUAAAAAUAAAAAACUACAUGAGGAUCACCCAUGUAGAAGGGUAACUGA [Ex2 Design 198: Random 13] | 77.5 | 26.6
AACAAACAUGAGGAUCACCCAUGUCAGGAUAUGCAAACAACAAACAACAAACAACAAAGCAGAAGGGAUAGGAA [63%, Olong, 4] | 27.1 | 21.2
AAAACUGGAGGAUAUACAUGAGGAUCACCCAUGUGUGGGUAGACUGUGUCGGCGUCAGGUAGAAGGCCACAAAA [Gilly Gone Silly 31 - Jieux - Exclusion 3] | 185 | 167
AAACGUAGAGGAUAUACAAAAAGAUUACGAAAGUAAUCGGGACAUGAGGAUCACCCAUGUAGAAGGCUACGAAA [Mod2 of Meechl 64% 2] | 36.7 | 94.5
CUCAAGUUAGGAUAUGGAAGAAAAGAAGAGAAAGAAAAGAACCAGAAGGAACAUGAGGAUCACCCAUGUAAGAA [EteRNA is fun!] | 58.1 | 62.7
AAAAGGGCAGGAUAUGCGUACUCACGGGAAAGCUGGAUGGUACAUGAGGAUCACCCAUGUAGAAGGGCUAAAAA [Dora Explored 18 - Jieux - Exclusion 2] | 32.8 | 21.4
AACAGUACAGGAUAUACAUGAGGAUCACCCAUGUGGGAAAAAAGAUCGAGAGAUCAAUGUAGAAGGGUACUGGA [JL In the Red 03] | 161 | 427
AAGAACUUAGGAUAUACAAGGAAGAAAGAAAAGAAAAGAAAACAUGAGGAUCACCCAUGUAGAAGGAAGUAGAA [EteRNA is fun!] | 40.9 | 21.5
AAAAAACAUGAGGAUCACCCAUGUGAGGAUAUGAUGCGAAUAAAGAAAGAAGAAAGCAUCAGAAGGCACACCUA [Disincluded 3 (MS2 Riboswitches)] | 26.3 | 59.9
CUUAUGUGAGGAUAUGGUGUUGGCCACAGGGAAAAGAUCCUCCAGAAGGCACAUGAGGAUCACCCAUGUAGUGA [Jolly's Folly 29 - Jieux - Exclusion 4] | 69 | 160
GAAAAGUGAGGAUAUGUCAAAAGUCACAAAAGUGACAAAAGACAGAAGGCACAUGAGGAUCACCCAUGUGGAAA [Mat - Exaclusion 4 - Eli mod - D51] | 30.9 | 38.4
